# According to patent US12006513B2, “Methods for the long-term expansion of granulocyte-macrophage progenitors and applications thereof” (University of Southern California, priority 2018, dated 2024):
# Columns and labels:
# [1] = tested on: bone marrow cells isolated from adult C57BL/6 mice; experiment: Small molecule library screens on bone marrow cells in serum free N2B27 medium; format: cell-based, mouse; settings: second screening, together with GDC0879
# ex vivo expanded GMPs = experiment: Macrophage differentiation of ex vivo expanded GMPs; format: cell-based, mouse; settings: RPMI 1640+10% FBS+20 ng/mL MCSF, 7 days
# Protocol: FIG. 3A-I presents results of macrophages differentiation from GMPs. […] P7 GMPs were cultured in RPMI 1640+10% FBS+20 ng/mL MCSF for 7 days. Mature macrophages were re-plated, fixed and stained for CD11b and F4/80. (B) Provides the results of an in vitro functional test of the differentiated macrophages. 1×10^5 GMPs (P7) or 1×10^6 whole BM cells were seeded into 1 well of 6-well plate in RPMI 1640+10% FBS+20 ng/mL MCSF. 7 days later, mature bone marrow-derived macrophages (BMM) and GMP-derived macrophages (GMPM) were trypsinized, counted and reseeded into 48-well plate at 1×10^5 cells per well in RPMI 1640+10% FBS. After overnight, cells were stimulated with 500 ng/mL LPS for 6 or 24 h. The inflammatory cytokines in the supernatant were measured by ELISA. (C) Provides images of another in vitro functional test of the differentiated macrophages. Green: E. coli-GFP. Red: tdTomato^+ macrophages. Top image, GFP labeled E. coli were co-cultured with tdTomato^+ GMPs-derived macrophages. Consecutive pictures were taken each 30′ under Zeiss LSM-780 confocal microscope for 1 h. […] (E), cells were harvested and FITC positive cells were analyzed by using BD Arial flow cytometry. […]
# Long-term ex vivo expanded GMPs can differentiate into functional and mature macrophages. […] After 6 or 24 h, the supernatant was harvested and the concentrations of inflammatory cytokines TNFα, IL6 and IL10 by ELISA were measured.
# mouse GMP = experiment: Granulocyte differentiation of ex vivo expanded GMPs; format: cell-based; settings: RPMI 1640+10% FBS, 20 ng/mL GCSF, 72 h
# Protocol: Long-term ex vivo expanded GMPs can differentiate into functional and mature granulocytes. Granulocyte colony-stimulating factor (G-CSF) is a known hematopoietic growth factor that regulates neutrophils production in the bone marrow. G-CSF was used to induce mouse GMP differentiation towards the neutrophil lineage. After culturing for 3 weeks in E7^+SCF/GDC/CHIR conditions, GMPs were re-plated in RPMI 1640+10% FBS medium and stimulated with 20 ng/mL of GCSF. Seventy-two hours after stimulation with GCSF, GMPs differentiated into cells that morphologically resembled granulocytes (e.g., see FIG. 3F). To further verify the identity of these cells, the cells were harvested and stained with Gr1 and CD115 antibodies and analyzed by flow cytometer. Granulocytes are Gr1^+ and CD115^−.
molecule,measurement,setting,value
O=C(NCCCn1ccnc1)c1cc(-c2ccco2)on1 [SKL2001],expansion of the uniform round-shaped cells,[1],acted synergistically with GDC0879 to promote the expansion
"MCSF: macrophage colony-stimulating factor, used at 20 ng/mL for macrophage differentiation (protein, UniProt P09603 33-554, looked up) Macrophage colony-stimulating …: EEVSEYCSHMIGSGHLQSLQRLIDSQMETSCQITFEFVDQEQLKDPVCYLKKAFLLVQDIMEDTMRFRDNTPNAIAIVQLQELSLRLKSCFTKDYEEHDKACVRTFYETPLQLLEKVKNVFNETKNLLDKDWNIFSKNCNNSFAECSSQDVVTKPDCNCLYPKAIPSSDPASVSPHQPLAPSMAPVAGLTWEDSEGTEGSSLLPGEQPLHTVDPGSAKQRPPRSTCQSFEPPETPVVKDSTIGGSPQPRPSVGAFNPGMEDILDSAMGTNWVPEEASGEASEIPVPQGTELSPSRPGGGSMQTEPARPSNFLSASSPLPASAKGQQPADVTGTALPRVGPVRPTGQDWNHTPQKTDHPSALLRDPPEPGSPRISSLRPQGLSNPSTLSAQPQLSRSHSSGSVLPLGELEGRRSTRDRRSPAEPEGGPASEGAARPLPRFNSVPLTDTGHERQSEGSFSPQLQESVFHLLVPSVILVLLAVGGLLFYRWRRRSHQEPQRADSPLEQPEGSPLTQDDRQVELPV",cells expressing macrophage markers CD11b and F4/80,ex vivo expanded GMPs,almost all the cells expressed both CD11b and F4/80
"GCSF: granulocyte colony-stimulating factor, used at 20 ng/mL for granulocyte differentiation (protein, UniProt P09919 31-207, looked up) Granulocyte …: TPLGPASSLPQSFLLKCLEQVRKIQGDGAALQEKLVSECATYKLCHPEELVLLGHSLGIPWAPLSSCPSQALQLAGCLSQLHSGLFLYQGLLQALEGISPELGPTLDTLQLDVADFATTIWQQMEELGMAPALQPTQGAMPAFASAFQRRAGGVLVASHLQSFLEVSYRVLRHLAQP",cells derived from GMPs that were Gr1+ CD115−,mouse GMP,more than 80%
